In PMC2760979 (Cancer research, 2009):

Molecular target: GST-p65(1-306) (UniProt Q04206 1-306)
Experiment: pull-down

GST-p65(1-306), sequence (Q04206 1-306): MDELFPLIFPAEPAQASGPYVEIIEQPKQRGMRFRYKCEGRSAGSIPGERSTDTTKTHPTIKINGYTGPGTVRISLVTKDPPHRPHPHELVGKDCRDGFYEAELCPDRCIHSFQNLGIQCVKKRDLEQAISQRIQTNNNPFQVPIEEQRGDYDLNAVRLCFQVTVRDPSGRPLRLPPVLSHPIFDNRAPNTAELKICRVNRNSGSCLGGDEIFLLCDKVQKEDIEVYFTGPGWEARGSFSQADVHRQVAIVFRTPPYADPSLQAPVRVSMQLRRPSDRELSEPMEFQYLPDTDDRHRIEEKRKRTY

- binding result: binds
B1: GGSSLSY peptide (peptide)
peptide: GGSSLSY
